B1: TPR t1 (parent)
chain: GACCAAUCUGCCCUCAGAGCUCGAGAACAUCUUCGGAUGCAGAGGAGGCAGGCUUCGGUGGCGCGAUAGCGCCAACGUCCUCAACCUCCAAUGCAUCCCACCACAUGAUGAUGCCUGAAGAGCCUUGGUUUUUUG

Variants of: B1
Test: polymerase ribozyme fitness, log enrichment relative to wild type (log ratio); higher = more active; in vitro selection for triplet polymerase activity
Summary of the method: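 PCR was used to build mutant libraries for each subunit of a heterodimeric triplet polymerase ribozyme, which were then transcribed. A single in vitro selection round, in triplicate, used a frozen incubation at −7 °C and recovered extended constructs by gel excision, streptavidin beads and RT-PCR. Fitness is the logarithm of genotype enrichment relative to wild-type enrichment, averaged over replicates with inverse-variance weights. The logarithm is base 2, and after Illumina sequencing only genotypes with ≥10 input reads and ≥1 read per output were kept.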

Variant | polymerase ribozyme fitness (log ratio)
GACCAAUCUGCCCUCAGAGCUCGAGAACAUCUUCAGAUGCAGAGGAGGCAGGCUUCGGUGGCGCGAUAGCGCCAACGUCCUCAACCUCCAAUGCAUCCGACCACAUGAUGAUGCCUGAAGAGCCUUGGUUUUGUG [G35A C99G U133G] | -5.8
GACCAAUCUGCCCUCAGAGCUCGAGAACAUCUUCAGAUGCAGAGGAGGCAGGCUUCGGUGGCGCGAUAGCGCCAACGUCCUCAACCUCCAAUGCAUCCCAUCACAUGAUGAUGCAUGAAGAGCCUUGGUUUUUUG [G35A C101U C115A] | -3.56
GACCAAUCUGCCCUCAGAGCUCGAGAACAUCUUCAGAUGCACAGGAGGCAGGCUUCGGUGGCGCGAUAGCGCUAACGUCCUCAUCCUCCAAUGCAUCCCACCACAUGAUGAUGCCUGAAGAGUCUUGGUUUUUUG [G35A G42C C73U A84U C123U] | -6.85
GACCAAUCUGCCCUCAGAGCUCGAGAACAUCUUCAGAUGCAGAGCAGGCAGGCUUCGGUGGCGCGAUAGCCCCAACCUCCUCAACCUCCAAUGCAUCCCACCAUAUGAUGAUGGCUGAAGAGCCUUGGUUUUUUG [G35A G45C G71C G77C C104U C114G] | -5.08
GACCAAUCUGCCCUCAGAGCUCGAGAACAUCUUCAGAUGCAGAGGAAGCAGGCUUCUGUGGCGCGAUAGCGCCAACGUCCUCAACCUCCAAUGCAUCCCACCACAUGAUGAUGCCUGAAGAGCCUUGGUUUUUUG [G35A G47A G57U] | -3.97
GACCAAUCUGCCCUCAGAGCUCGAGAACAUCUUCAGAUGCAGAGGAGCCAGGCUUCGGUGGCGCGAUAGCGCCAACGUCCUCAACCUCCAAUGCAUCCCACCACAUGAUGAUGCCUGAAGAGGCUUGGUUUUUUG [G35A G48C C123G] | -2.75
GACCAAUCUGCCCUCAGAGCUCGAGAACAUCUUCAGAUGCAGAGGAGGCAGGCUUCGCUGGCGCGAUAGCGCCAACGUCCUCAACCUCCAAUGCAUCCCACCACAUGAUGAUGCCUGAAGAGCCUUGGUUUUUUG [G35A G58C] | -3.4
GACCAAUCUGCCCUCAGAGCUCGAGAACAUCUUCAGAUGCAGAGGAGGCAGGCUUCGGUCGCGCGAUAGCGCCAACGUCCUCAACCUCCAAUGCAUCCCACCACAUGAUGAUGCCUGAAGAGCCUUGGUUUUUUG [G35A G60C] | -5.49
GACCAAUCUGCCCUCAGAGCUCGAGAACAUCUUCAGAUGCAGAGGAGGCAGGCUUCGGUGGCCCGAUAGCUCCAACGUCCUCAACCUCCAAUGCAUCCCACCACAUGAUGAUGACUGAAGAGCCUUGGUUUUUUG [G35A G63C G71U C114A] | -6.69
GACCAAUCUGCCCUCAGAGCUCGAGAACAUCUUCAGAUGCAGAGGAGGCAGGCUUCGGUGGCGCGAUACCGCCAACGUCCUCAACCUCCAAUGCAUCCCACCACAUGAUGAUGCCUGAAGAGCCUUGGUUUUUUG [G35A G69C] | -4.88
GACCAAUCUGCCCUCAGAGCUCGAGAACAUCUUCAGAUGCAGAGGAGGCAGGCUACGGUGGCGCGAUAGCGCCAACGGCCUCAACCUCUACUGCAUCCCACCACAUGAUGAUGCCUGAAGAGCAUGGUUUUUUUG [G35A U55A U78G C89U A91C C124A U126G G128U] | -6.76
GACCAAUCUGCCCUCAGAGCUCGAGAACAUCUUCAGAUGCAGAGGAGGCAGGCUUCGGCGGCGCGAUAGCGCCAACGUCCUCAACCUCCAAUGCAUCCCACCACAUGAUGAUGCCGGAAGAUCGUUGGUUUUUUG [G35A U59C U116G G122U C124G] | -6.12
GACCAAUCUGCCCUCAGAGCUCGAGAACAUCUUCAGAUGCAGAGGAGGCAGGCUUCGGUGGCGCGAUAGCGCCAACGCCCUCAACCUCCAAUGCAUCCCACCACAUGAUGAUGCCUGAAGAGCCUUGGUUUUUUG [G35A U78C] | -3.74
GACCAAUCUGCCCUCAGAGCUCGAGAACAUCUUCAGAUGCAGAGGAGGCAGGCUUCGGUGGCGCGAUAGCGCCAACGUCCUCAACCACCAAUGCAUCCCACCACAUGAUGAUGCCUGAAGAGCCUUGGUUUUUUG [G35A U87A] | -3.5
GACCAAUCUGCCCUCAGAGCUCGAGAACAUCUUCAGAUGCAGAGGAGGCAGGCUUCGGUGGCGCGAUAGCGCCAACGUCCUCAACCUCCAAUGCAUCCCACCACAUGAUGAUGCCUGAAGAGCCUUGGUUAUUUG [G35A U131A] | -4.99
GACCAAUCUGCCCUCAGAGCUCGAGAACAUCUUCCGAUGCAGAGGAGGGAGGCUUCGGUGGCGCGAUAGCGCCAACGACCUCAACCUCCAAUGCAUCCCACCACAUGAUGAUGCCUGAAGAGCCUUGGUUUUUUG [G35C C49G U78A] | -5.52
GACCAAUCUGCCCUCAGAGCUCGAGAACAUCUUCCGAUGCAGAGGAGGCAGGGUUUGGUGGCGCGAUAGCGCCAACGUCCUCAACCUCCAAUGCAUCCCACCACAUGAUGAUGCCUGAAGAGCCUUGGUAUUUUG [G35C C53G C56U U130A] | -6.86
GACCAAUCUGCCCUCAGAGCUCGAGAACAUCUUCCGAUGCAGAGGAGGCAGGCUUCGGUGGCGCGAUAGCGUCAACGUCCUCAACCUCCAAUGCAUCCAACUACAUGAUGAUGCCCGAAGAGCCUUGGUGUUUUG [G35C C72U C99A C102U U116C U130G] | -6.33
GACCAAUCUGCCCUCAGAGCUCGAGAACAUCUUCCGAUGCAGAGGAGGCAGGCUUCGGUGGCGCGAUAGCGCCAACGUCCUCAACAUCCAAUGCAUCCCAUCACAUGACGAUGCCUGAAGAGCGUUGGUUUUUUG [G35C C86A C101U U109C C124G] | -7.22
GACCAAUCUGCCCUCAGAGCUCGAGAACAUCUUCCGAUGCAGAGGAGGCAGGCUUCGGUGGCGCGAUAGCGCCAACGUCCUCAACCUUCAAUGCAUCCCACCACAUGAUGAUGCCUGAAGAGCCUUGGUUUUUUG [G35C C88U] | -4.03
GACCAAUCUGCCCUCAGAGCUCGAGAACAUCUUCCGAUGCAGAGGAGGCAGGCUUCGGUGGCGCGAUAGCGCCAACGUCCUCAACCUCCAAUGCAUCCCACCACAUGAUGAUGCCUGAAGAGCAUUGGUUUUUUG [G35C C124A] | -2.66

— the RNAGym collection of RNA variant scans (doi:10.1073/pnas.2313332121)
